Measured values reported in article PMC5100589.

Key:
YY1(F1-4) = YY1(F1-4) (human, UniProt P25490 292-414); assay: MST
YY1(F1-4) H325A = YY1(F1-4) H325A (human, UniProt P25490 292-414, H325A); assay: EMSA
YY1(F1-4) Q344A = YY1(F1-4) Q344A (human, UniProt P25490 292-414, Q344A); assay: EMSA
YY1(F1-4) R323A = YY1(F1-4) R323A (human, UniProt P25490 292-414, R323A); assay: EMSA
YY1(mut5) = YY1(mut5) (human, UniProt P25490 292-414, V324A;H325A;V326A;L340A;Q344A); assay: MST
GST-YY1(F1-4) = GST-YY1(F1-4) (human, UniProt P25490 292-414); assay: competition
Chain of GST-YY1(F1-4) (P25490 292-414): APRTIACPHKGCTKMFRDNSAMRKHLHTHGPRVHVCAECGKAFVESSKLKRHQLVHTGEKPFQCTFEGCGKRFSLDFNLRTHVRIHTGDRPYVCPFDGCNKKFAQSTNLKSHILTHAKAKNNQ

Chain of YY1(F1-4) (P25490 292-414): as above
Chain of YY1(mut5) (P25490 292-414 V324A/H325A/V326A/L340A/Q344A): as the sequence (P25490 292-414) above, with V33A, H34A, V35A, L49A, Q53A counted along it
Chain of YY1(F1-4) Q344A (P25490 292-414 Q344A): as the sequence (P25490 292-414) above, with Q53A counted along it
Chain of YY1(F1-4) R323A (P25490 292-414 R323A): as the sequence (P25490 292-414) above, with R32A counted along it
Chain of YY1(F1-4) H325A (P25490 292-414 H325A): as the sequence (P25490 292-414) above, with H34A counted along it

For AGGCGAUGGUGAGC (ssRNA) [m2 RNA], the Kd (YY1(F1-4)) was 3.8 ± 0.6 µM, the binding result (YY1(F1-4) H325A) was “binds” and the binding result (YY1(F1-4) Q344A) was “binds”. The binding result (YY1(F1-4) R323A) was “binds” and the Kd (YY1(mut5)) was 31 ± 9 µM.

B1: AAV P5 dsDNA (dsDNA)
DNA 1: AGGGTCTCCATTTTGAAGCG
DNA 2: CGCTTCAAAATGGAGACCCT
B1: binds (GST-YY1(F1-4)).

In the case of AAAAAAAAAAAAAA (ssRNA) [poly(A) RNA], the Kd (YY1(F1-4)) is reported as 4.2 ± 0.5 µM.
